Data set [1] deals with the molecule itself. The data set is described as follows: SEC-MALS. Background: Size exclusion chromatography separates by hydrodynamic size, large species first.
Data set [2] concerns the molecule itself. Put plainly: mass photometry.
Data set [3] concerns the target T1, full length SPD-5-GFP (C. elegans), P91349.
T1 chain: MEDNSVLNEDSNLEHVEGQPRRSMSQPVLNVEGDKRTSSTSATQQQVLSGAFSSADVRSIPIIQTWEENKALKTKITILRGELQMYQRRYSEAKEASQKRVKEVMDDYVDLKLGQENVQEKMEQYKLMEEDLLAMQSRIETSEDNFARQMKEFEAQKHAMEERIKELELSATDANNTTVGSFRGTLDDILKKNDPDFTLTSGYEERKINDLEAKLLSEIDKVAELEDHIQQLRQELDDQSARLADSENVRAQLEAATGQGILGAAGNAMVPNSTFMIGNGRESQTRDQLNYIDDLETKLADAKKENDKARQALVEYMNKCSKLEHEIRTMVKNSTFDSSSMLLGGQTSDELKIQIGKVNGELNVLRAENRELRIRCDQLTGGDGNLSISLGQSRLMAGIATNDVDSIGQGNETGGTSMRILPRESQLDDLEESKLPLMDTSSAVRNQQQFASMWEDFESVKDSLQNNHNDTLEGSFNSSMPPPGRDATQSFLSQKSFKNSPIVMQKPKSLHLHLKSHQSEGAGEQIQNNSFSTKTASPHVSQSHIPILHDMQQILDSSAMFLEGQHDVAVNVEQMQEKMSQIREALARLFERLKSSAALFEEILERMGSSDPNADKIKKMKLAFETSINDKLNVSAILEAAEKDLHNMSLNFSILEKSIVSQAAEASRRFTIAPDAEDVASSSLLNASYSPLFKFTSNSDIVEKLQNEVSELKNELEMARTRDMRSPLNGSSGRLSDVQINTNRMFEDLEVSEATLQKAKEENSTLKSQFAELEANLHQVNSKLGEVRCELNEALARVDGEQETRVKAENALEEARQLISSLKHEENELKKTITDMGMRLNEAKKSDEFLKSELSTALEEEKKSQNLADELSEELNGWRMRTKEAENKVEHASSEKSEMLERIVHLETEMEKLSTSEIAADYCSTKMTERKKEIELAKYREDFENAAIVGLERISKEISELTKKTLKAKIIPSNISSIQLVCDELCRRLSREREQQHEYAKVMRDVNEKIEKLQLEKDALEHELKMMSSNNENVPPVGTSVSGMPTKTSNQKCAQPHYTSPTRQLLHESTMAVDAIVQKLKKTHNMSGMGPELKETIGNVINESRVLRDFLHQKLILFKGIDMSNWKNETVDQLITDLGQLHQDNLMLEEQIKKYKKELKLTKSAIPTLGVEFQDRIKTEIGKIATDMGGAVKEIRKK
The data set is described as follows: mass photometry. As to conditions: remark: other sources report otherwise.

Data set [4] concerns the molecule itself. Put plainly: crystal structure.
The target in data set [5] is T2, NG-CDK5RAP2-PReM (CDK5RAP2 residues 535-639) (human, UniProt Q96SN8 535-639).
T2 sequence (looked up): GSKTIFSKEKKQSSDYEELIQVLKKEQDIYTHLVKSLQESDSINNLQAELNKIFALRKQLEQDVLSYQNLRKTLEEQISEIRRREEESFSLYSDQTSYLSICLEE
Put plainly: fluorescence microscopy of networks formed on mixing purified proteins.

Data set [6] has as its target T3, NG-fusion of PReMΔH1 (Cnn 462-608) (Drosophila melanogaster, UniProt P54623-2 462-608).
T3 sequence (looked up): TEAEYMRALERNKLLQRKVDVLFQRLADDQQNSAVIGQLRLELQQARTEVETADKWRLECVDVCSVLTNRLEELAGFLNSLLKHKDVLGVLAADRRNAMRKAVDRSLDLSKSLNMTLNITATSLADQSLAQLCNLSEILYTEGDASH
The description is as above.

B1: MBP-fusion of PReM domain construct Cnn 490-608 (domain or fragment, Drosophila melanogaster, UniProt P54623-2 490-608, looked up)
chain: DQQNSAVIGQLRLELQQARTEVETADKWRLECVDVCSVLTNRLEELAGFLNSLLKHKDVLGVLAADRRNAMRKAVDRSLDLSKSLNMTLNITATSLADQSLAQLCNLSEILYTEGDASH
As a reminder, the stoichiometry N is the number of molecules, sites or subunits per partner or assembly. Regarding B1, the “stoichiometry N” value in data set [1] worked out at 2.

B2: full length Cnn-GFP (natural protein, Drosophila melanogaster, UniProt P54623-2 1-1148, looked up)
chain: MDQSKQVLRDYCGDGNGTCASSLKEITLIETVTSFLEENGAAEIDRRVLRKLAEALSKSIDDTSPGALQDVTMENSYASFDVPRPPGGGNSPLPSQGRSVRELEEQMSALRKENFNLKLRIYFLEEGQPGARADSSTESLSKQLIDAKIEIATLRKTVDVKMELLKDAARAISHHEELQRKADIDSQAIIDELQEQIHAYQMAESGGQPVENIAKTRKMLRLESEVQRLEEELVNIEARNVAARNELEFMLAERLESLTACEGKIQELAIKNSELVERLEKETASAESSNANRDLGAQLADKICELQEAQEKLKERERIHEQACRTIQKLMQKLSSQEKEIKKLNQENEQSANKENDCAKTVISPSSSGRSMSDNEASSQEMSTNLRVRYELKINEQEEKIKQLQTEVKKKTANLQNLVNKELWEKNREVERLTKLLANQQKTLPQISEESAGEADLQQSFTEAEYMRALERNKLLQRKVDVLFQRLADDQQNSAVIGQLRLELQQARTEVETADKWRLECVDVCSVLTNRLEELAGFLNSLLKHKDVLGVLAADRRNAMRKAVDRSLDLSKSLNMTLNITATSLADQSLAQLCNLSEILYTEGDASHKTFNSHEELHAATSMAPTVENLKAENKALKKELEKRRSSEGQRKERRSLPLPSQQFDNQSESEAWSEPDRKVSLARIGLDETSNSLAAPEQAISESESEGRTCATRQDRNRNSERIAQLEEQIAQKDERMLNVQCQMVELDNRYKQEQLRCLDITQQLEQLRAINEALTADLHAIGSHEEERMVELQRQLELKNQQIDQLKLAHSTLTADSQITEMELQALQQQMQEIEQLHADSVETLQSQLQKLKLDAVQQLEEHERLHREALERDWVALTTYQEQAQQLLELQRSLDYHQENEKELKQTLVENELATRALKKQLDESTLQASKAVMERTKAYNDKLQLEKRSEELRLQLEALKEEHQKLLQKRSNSSDVSQSGYTSEEVAVPMGPPSGQATTCKQAAAAVLGQRVNTSSPDLGIESDAGRISSVEVSNAQRAMLKTVEMKTEGSASPKAKSEESTSPDSKSNVATGAATVHDCAKVDLENAELRRKLIRTKRAFEDTYEKLRMANKAKAQVEKDIKNQILKTHNVLRNVRSNMENEL
Take B2: in data set [2], the “stoichiometry N” value came to 2.

B3: full length SPD-5-GFP, P91349 1-1198 (natural protein)
chain: MEDNSVLNEDSNLEHVEGQPRRSMSQPVLNVEGDKRTSSTSATQQQVLSGAFSSADVRSIPIIQTWEENKALKTKITILRGELQMYQRRYSEAKEASQKRVKEVMDDYVDLKLGQENVQEKMEQYKLMEEDLLAMQSRIETSEDNFARQMKEFEAQKHAMEERIKELELSATDANNTTVGSFRGTLDDILKKNDPDFTLTSGYEERKINDLEAKLLSEIDKVAELEDHIQQLRQELDDQSARLADSENVRAQLEAATGQGILGAAGNAMVPNSTFMIGNGRESQTRDQLNYIDDLETKLADAKKENDKARQALVEYMNKCSKLEHEIRTMVKNSTFDSSSMLLGGQTSDELKIQIGKVNGELNVLRAENRELRIRCDQLTGGDGNLSISLGQSRLMAGIATNDVDSIGQGNETGGTSMRILPRESQLDDLEESKLPLMDTSSAVRNQQQFASMWEDFESVKDSLQNNHNDTLEGSFNSSMPPPGRDATQSFLSQKSFKNSPIVMQKPKSLHLHLKSHQSEGAGEQIQNNSFSTKTASPHVSQSHIPILHDMQQILDSSAMFLEGQHDVAVNVEQMQEKMSQIREALARLFERLKSSAALFEEILERMGSSDPNADKIKKMKLAFETSINDKLNVSAILEAAEKDLHNMSLNFSILEKSIVSQAAEASRRFTIAPDAEDVASSSLLNASYSPLFKFTSNSDIVEKLQNEVSELKNELEMARTRDMRSPLNGSSGRLSDVQINTNRMFEDLEVSEATLQKAKEENSTLKSQFAELEANLHQVNSKLGEVRCELNEALARVDGEQETRVKAENALEEARQLISSLKHEENELKKTITDMGMRLNEAKKSDEFLKSELSTALEEEKKSQNLADELSEELNGWRMRTKEAENKVEHASSEKSEMLERIVHLETEMEKLSTSEIAADYCSTKMTERKKEIELAKYREDFENAAIVGLERISKEISELTKKTLKAKIIPSNISSIQLVCDELCRRLSREREQQHEYAKVMRDVNEKIEKLQLEKDALEHELKMMSSNNENVPPVGTSVSGMPTKTSNQKCAQPHYTSPTRQLLHESTMAVDAIVQKLKKTHNMSGMGPELKETIGNVINESRVLRDFLHQKLILFKGIDMSNWKNETVDQLITDLGQLHQDNLMLEEQIKKYKKELKLTKSAIPTLGVEFQDRIKTEIGKIATDMGGAVKEIRKK
Take B3: the stoichiometry N in data set [3] worked out at 2.

B4: MBP-fusion of PReM domain construct Cnn 462-608 (domain or fragment, Drosophila melanogaster, UniProt P54623-2 462-608, looked up)
chain: TEAEYMRALERNKLLQRKVDVLFQRLADDQQNSAVIGQLRLELQQARTEVETADKWRLECVDVCSVLTNRLEELAGFLNSLLKHKDVLGVLAADRRNAMRKAVDRSLDLSKSLNMTLNITATSLADQSLAQLCNLSEILYTEGDASH
As for B4, the “stoichiometry N” value in data set [1] worked out at 2.

B5: Cnn 490-579 2A mutant (domain or fragment, Drosophila melanogaster, UniProt P54623-2 490-579, looked up)
chain: DQQNSAVIGQLRLELQQARTEVETADKWRLECVDVCSVLTNRLEELAGFLNSLLKHKDVLGVLAADRRNAMRKAVDRALDLAKSLNMTLN
B5: the binding result in data set [4] is listed as “binds”.

B6: human CDK5RAP2 CM2 (residues 1812-1893) (domain or fragment, UniProt Q96SN8 1812-1893, looked up)
chain: PLHCEQIGEMKAEVTKLHKKLFEQEKKLQNTMKLLQLSKRQEKVIFDQLVVTHKILRKARGNLELRPGGAHPGTCSPSRPGS
Regarding B6, the binding result in data set [5] and in data set [6] was “binds” each time.
